The RNAGym collection of RNA variant scans (doi:10.7554/elife.90254)

B1: OR4K15 (parent)
chain: GUUAACGGUCAUAGGCCAUGGAAACUAGGAGCACCAUUUCGCUGCCAGUGAAGAAAUGAACAAAGAAAAUCUGGGCCAGGCAGGCAUCAAAAGAAAUAGUCUUGCGCUCAACCAGAAAGUCUGUAAUCAUUUUAAGGGUA

Variants of: B1
Assay: self-cleavage, relative activity (ratio to wild type); higher = more cleavage; in vitro, sequencing; the parent is a self-cleaving ribozyme

| Variant | self-cleavage |
| --- | --- |
| GUUAACGGUCAUCGGCCAUGGAAACUAGGAGCACCAUUUCGCUGCCAGUGAAGAAAUGAACAAAGAAAAUCUGGGCCAGGCAGGCAUCAAAAGAAAUAGUCUUGCGCUCAACCAGGAAGUCUGUAAUCAUUUUAAGGGUA | 0.96 |
| GUUAACGGUCAUAGGCCAUGGAAACUAGGAGCACCAUUUCGCUGCCAGUGACGAAAUGAACAAAGAAGAUCUGGGCCAGGCAGGCAUCAAAAGAAAUAGUCUUGCGCUCAACCAGAAAGUCUGUAAUCAUUUUAAGGGUA | 0.55 |
| GUUAACGGUCAUAGGCCAUGGAAACUAGGAGCACCAUUUCGCUGCCAGUGAUGAAAUGAACAAAGAGAAUCUGGGCCAGGCAGGCAUCAAAAGAAAUAGUCUUGCGCUCAACCAGAAAGUCUGUAAUCAUUUUAAGGGUA | 0.87 |
| GUUAACGGUCAUAGGCCAUGGAAUCUAGGAGCACCAUUUCGCUGCCAGUGAAGAAAUGAACAAAGAAAAUCUGGGCCAGGCAGGCAUCAAAAGAAAUAGUCUUGCGCUCAACCAGUAAGUCUGUAAUCAUUUUAAGGGUA | 0.51 |
| GUUAACGGUCAUAGGCCAUGGAAACUAGGAGCACCAUUUCGCUGCUAGUGUAGAAAUGAACAAAGAAAAUCUGGGCCAGGCAGGCAUCAAAAGAAAUAGUCUUGCGCUCAACCAGAAAGUCUGUAAUCAUUUUAAGGGUA | 0.64 |
| GUUAACGGUCAUAGGCCCUGGAAACUAGGAGCACCAUUUCGCUGCCAGUGAAGAAAUGAACAAAGAAAAUCUGGGCCAGGCAGGCAUCAAAAGAAAUAGUCUUGCGCUCAACCAGAGAGUCUGUAAUCAUUUUAAGGGUA | 1.24 |
| GAUAACGGUCAUAGGCCAUGGAAACUAGGAGCACCAUUUCGCCGCCAGUGAAGAAAUGAACAAAGAAAAUCUGGGCCAGGCAGGCAUCAAAAGAAAUAGUCUUGCGCUCAACCAGAAAGUCUGUAAUCAUUUUAAGGGUA | 0.84 |
| GUUAACGGUCAUAGGCCAUGGAAACUAGGAGCACCAUUUCGCUGCCAGUGAAGAAAUAAACAAAGAAAAUCUGGGCCAGGCAGGCAUCAAAAGAAGUAGUCUUGCGCUCAACCAGAAAGUCUGUAAUCAUUUUAAGGGUA | 1.84 |
| GUUAACGGUCAUAGGCCAUGGAAACUAGGAGCACCAUUUCGCUGCCAGUGAAGAAAUGAUCAAAGAAAAUCUGGGCCGGGCAGGCAUCAAAAGAAAUAGUCUUGCGCUCAACCAGAAAGUCUGUAAUCAUUUUAAGGGUA | 0.23 |
| GUUAACGGUCAUAGGCCAUGGAAACUAGGAGGACCAUUUCGCUGCCAGUGAAGAAAUGAACAAAGAAAAUCUGGGCCAGGCAGGCAUCAAAAGAAAUAGUCUUGCGCUCAACCAGAAAGUCUGUAAUCAUUUUAAGGGUA | 1.25 |
| GUUAACGGUCAUAGGCCAUGGAAACUAGGAGCACCAUUUCGCUGCCAGUGAAGAAAUGAACAAAGAAAAUCUGGGCCAGACAGGCAUCAGAAGAAAUAGUCUUGCGCUCAACCAGAAAGUCUGUAAUCAUUUUAAGGGUA | 0.18 |
| GUUAACGGUCAUAGGCCAUGGAAACUAGGAGCACCAUUUCGCUGCCGGUGAAGAAAUGAACAAAGAAAAUCUGGGCCAGGCAGGUAUCAAAAGAAAUAGUCUUGCGCUCAACCAGAAAGUCUGUAAUCAUUUUAAGGGUA | 0.65 |
| GUUAACGGUCAUAGGCCAUGGAAACUAGGAGCACCUUUUCGCUGCCAGUGAAGAAAUGAACAAAGAAGAUCUGGGCCAGGCAGGCAUCAAAAGAAAUAGUCUUGCGCUCAACCAGAAAGUCUGUAAUCAUUUUAAGGGUA | 1.62 |
| GUUAACUGUCAUAGGCCAUGGAAACUAGGAGCACCAUUUCGCUGCCAGUGAAGAAAUGAACAAAGAAAAUCUGGGCCAGGCAGGCAUCAAAAGAAAUAGUCUUACGCUCAACCAGAAAGUCUGUAAUCAUUUUAAGGGUA | 0.05 |
| GUUAACGGUCAUUGGCCAUGGAAACUAGGAGCACCAUUUCGCUGCCAGUGAAGAAAUGAACAAAGAAAAUCUGGGCCAGGCAGGCGUCAAAAGAAAUAGUCUUGCGCUCAACCAGAAAGUCUGUAAUCAUUUUAAGGGUA | 1.62 |
| GUUAACGGUCAUAGGCCAUGGAUACUAGGAGCACCAUUUCGCUGCCAGUGAAGAAAUGAACAAAGAAAAUCUGGGCCAGGCAGGCAUCAAAAGAAAUAGUCUUGCGCUCAACCAGAAAGUCUGUAAUCACUUUAAGGGUA | 0.7 |
| GUUAACGGUCAUAGGCCAUGGAAACUAGGAGCACCAUUUCGCUGCCAGUGAAGAAAUGAACAAAGAAAAUCCGGGCCAGGCAGGCAUCAAAAGAAAUAGUCUUGCGCACAACCAGAAAGUCUGUAAUCAUUUUAAGGGUA | 0.07 |
| GUUAACGGUCAUAGGCCAUGGAAACUAGGAGCACCAUUUCGCUGCCAGUGAAGAAAUGAACAAAGAAAAUCUGGGCCAGGCAGGCAUCAAAAGAAGUAGUCUUGCGCUCAACCAGAAAGUCUGUAAUCAUGUUAAGGGUA | 0.85 |
| GUCAACGGUCAUAGGCCAUGGAAACUAGGAGCACCAUUUCGCUGCCAGUGGAGAAAUGAACAAAGAAAAUCUGGGCCAGGCAGGCAUCAAAAGAAAUAGUCUUGCGCUCAACCAGAAAGUCUGUAAUCAUUUUAAGGGUA | 1.12 |
| GUUAACGGUCAUUGGCCAUGGAAACUAGGAGCACCAUUUCGCUGCCAGUGAAGAAAUGAACAAAGAAAAUCUGGGCCAGGCAGGCAUCAAUAGAAAUAGUCUUGCGCUCAACCAGAAAGUCUGUAAUCAUUUUAAGGGUA | 1.34 |
| GUUAACGGUCAUAGGCCAUGGAAACUAGGAGCACCAUUUCGCUGCCAGUGAAGAAAUGAACAAAGAAAAUCUGGGCCAGGCAGGCAUCAAAAGACAUAGUCUCGCGCUCAACCAGAAAGUCUGUAAUCAUUUUAAGGGUA | 1.28 |

| Variant | self-cleavage |
| --- | --- |
| GUUAACGGUCAUAGGCCAUGGAAACUAGGAGCACCAUUUCGCUGCCAGUGAAGAAAUGAUCAAAGAAAAUCUGGGCCAGGCAGGCAUCAAAAGAAAUAGUCUUGCGCUCAACCAGAAAGUCUGUAAUCAUCUUAAGGGUA | 0.75 |
| GUUAACGGUCAUAGGCCAUGGAAACUAGGAGCACCAUUUCGCCGCCAGUGAAGAAAUGAACAAAGAAAAGCUGGGCCAGGCAGGCAUCAAAAGAAAUAGUCUUGCGCUCAACCAGAAAGUCUGUAAUCAUUUUAAGGGUA | 1.28 |
| GAUAACGGUCAUAGGCCAUGGAAACUAGGAGCACCAUUUCGCUGCCAGUGAAGAAAUGAACAAAGAAAAUCUGGGCCAGGCAGGCAUCAAAAGAAAUAGUCUUGCGCUCAACCUGAAAGUCUGUAAUCAUUUUAAGGGUA | 0.33 |
| GUUAACGGUCAUAGGCCAUGGAAACUAGGAGCACCAUUUCGCUGCCAGUGAAGAAAUGAACAAAGAAAAUCUGGGCCAGGCAGGCAUCAAAAGAAAUAGUCUUGCGCUCAACCUGAAAGUCUGUAAUCAUUUUGAGGGUA | 0.04 |
| GUUAACGGUCAUAGGCCAUGGAAACUGGGAGCACCAUUCCGCUGCCAGUGAAGAAAUGAACAAAGAAAAUCUGGGCCAGGCAGGCAUCAAAAGAAAUAGUCUUGCGCUCAACCAGAAAGUCUGUAAUCAUUUUAAGGGUA | 1.14 |
| GUUAACGGUCAUAGGCCAUGGAAACUAGGAGCACCACUUCGCUGCCAGUGAAGAAAUGAACAAAGAAAAUCUGGGCCAGGCAGGCAUCAAAAGAUAUAGUCUUGCGCUCAACCAGAAAGUCUGUAAUCAUUUUAAGGGUA | 1.73 |
| GUUAACGGUCAUAGGCCAUGGAAACUAGGAGCACCAUUUCGCUGCCAGUGAAGAAAUGAACAAAGAAAAUCUGGGCCAGGCAGGCAUCAAAAGAAAUAGUCUUGCGCUCUACCAGAAAGUCUGUAAUCAUUUUAAGAGUA | 1.55 |
| GUUAACGGUCAUAGGCCAUGGAGACUAGGAGCACCAUUUCGCUGCCAGUGAAGAAAUGAACAAAGAAAAUCUGGGCCAGGCAGGCAUCAAAAGAAAUAGUCUUGCGCUCAACCAGAAAGUCUGUAAUCAUUUUAAGGGCA | 1.26 |
| GUUAACGGUCAUGGGCCAUGGAAACUAGGAGCACCAUUUCGCUGCCAGUGAAGAAAUGAACAAAGAAAAUCUGGGCCUGGCAGGCAUCAAAAGAAAUAGUCUUGCGCUCAACCAGAAAGUCUGUAAUCAUUUUAAGGGUA | 0.6 |
| GUCAACGGUCAUAGGCCAUGGAAACUAGGAGCACCAUUUCGCUGCCAGUGAAGAAAUGAACAAAGAGAAUCUGGGCCAGGCAGGCAUCAAAAGAAAUAGUCUUGCGCUCAACCAGAAAGUCUGUAAUCAUUUUAAGGGUA | 0.97 |
| GUUAACGGUCAUAGGCCAUGGAAACUAGGAGCACCAUUUCGCAGCCAGUGAAGAAAUGAACAAAGAAAAUCUGGGCCAGGCAGGCAUCAUAAGAAAUAGUCUUGCGCUCAACCAGAAAGUCUGUAAUCAUUUUAAGGGUA | 1.74 |
| GUUAACGGUUAUAGGCCAUGGAAACUAGGAGCACCAUUUCGCUGCCGGUGAAGAAAUGAACAAAGAAAAUCUGGGCCAGGCAGGCAUCAAAAGAAAUAGUCUUGCGCUCAACCAGAAAGUCUGUAAUCAUUUUAAGGGUA | 0 |
| GUUAACGGUCAUAGGCCAUGGAAACUAGGAGCACCAUUUCGCUGCCAGUGAAGAAAUGAACAAAGAAGAUCUGGGCCAGGCUGGCAUCAAAAGAAAUAGUCUUGCGCUCAACCAGAAAGUCUGUAAUCAUUUUAAGGGUA | 0.22 |
| GCUAACGGUCAUAGGCCAUGGAAACUAGGAGCACCAUUUCGCUGCCAGUGAAGAAAUGAACAAAGAAAAUCUGGGCCAGGCAGGCAUCAAAAGAAAUAGUCUUGCGCUCAACCAGAAAGUCGGUAAUCAUUUUAAGGGUA | 1.35 |
| GUUAACGGUCAUAGGCCAUGGAAACUAGGAGCACCAUUUCGCUGCCAGUGAGGAAAUGAACAAAGAAAAUCUGGGCCAGGCAGGCAUCAAAAGAAAUAGUCUUGCGCUCAACCAGAAAGUAUGUAAUCAUUUUAAGGGUA | 2.07 |
| GUAGACGGUCAUAGGCCAUGGAAACUAGGAGCACCAUUUCGCUGCCAGUGAAGAAAUGAACAAAGAAAAUCUGGGCCAGGCAGGCAUCAAAAGAAAUAGUCUUGCGCUCAACCAGAAAGUCUGUAAUCAUUUUAAGGGUA | 1.4 |
| GUUAACGGUCAUAGGCCAUGGAAACUAGGAGCACCAUUUCGCUGCCAGUGAAGAAAUGAACAAAGAAAAUCUGGGCCAGGCGGGCAUCAAAAGAAAUAGUCUUGCGCUCAACCAGAAAGUUUGUAAUCAUUUUAAGGGUA | 0.91 |
| GUUAACGGUCAUAGGCCAUGGAAACUAGGAGCACCAUUUCGCUGCCAGUGAGGAAAUGAACAAAGAAAAUCUGGGCCAGGCAGGCAUCAAAAGAAAAAGUCUUGCGCUCAACCAGAAAGUCUGUAAUCAUUUUAAGGGUA | 1.33 |
| GUUAACGGUCAUAGGCCAUGGAAGCUAGGAGCACCAUUUCGCUGCCAGUGAAGAAAUGAACAAAGAAAAUCUGGGCCAGGCAGGCAUCAAAAGAAAUAGUCUUGCGCUCAACCAGAAAGUCUGUAAUCAUUUAAAGGGUA | 1.18 |
| GUUAACGGUCAUAGGCCAUGGAAACUAGGAGCACCAAUUCGCUGCCAGUGAAGAAAUGAACAAAGAAAAUCUGGGCCAGGCAGGCAUCAGAAGAAAUAGUCUUGCGCUCAACCAGAAAGUCUGUAAUCAUUUUAAGGGUA | 0.73 |
